Article doi:10.1101/2025.11.15.688601, “A multiplexed approach for genetic screening of human cells by electron microscopy uncovers a critical effector of mitochondrial cristae shape” (bioRxiv, 2025)

Target: the molecule itself
Experiment: SEC-MALS; about 10 mg/ml applied to Superdex 200 Increase 10/300 in PBS; DAWN HELEOS and Optilab T-rEX detectors

B1: Recombinant MISHA/FAM136A (sample of the SEC-MALS analysis) (natural protein)
chain: not shown
notes: human FAM136A/MISHA, Uniprot Q96C01, printed as 138 amino acids (the whole entry); tag removed before the assay; Applied at about 10 mg/ml; also called Mitochondrial-IMS membrane-SHApe-impacting protein; source: E. coli SHuffle, purified; tag cleaved in both
  stoichiometry N: 2
